Source: IntAct's records for PubMed 24217340

B1: Zinc finger protein GLI2 (Mus musculus), Q0VGT2 (parent)
chain: METSAPAPALEKKEAKSGLLEDSSFPDPGKKACPLAVAAAVAAHGVPQQLLPAFHAPLPIDMRHQEGRYHYDPHSVHSVHGPPTLSGSPVISDISLIRLSPHPAGPGESPFSAHHPYVNPHMEHYLRSVHSSPTLSMISAARGLSPADVAHEHLKERGLFSLAAPGTNPSDYYHQMTLMASHPTPYGDLLMQSGGAASAPHLHDYLNPVDASRFSSPRVTPRLSRKRALSISPLSDASLDLQRMIRTSPNSLVAYINNSRSSSAASGSYGHLSAGALSPAFTFPHPINPVAYQQILSQQRGLGSAFGHTPPLIQPSPTFLAQQPMTLTSISTMPTQLSSSSSNCLNDANQNKQNSESAVSSTVNPITIHKRSKVKTEAEGLRPASPLGLTQEQLADLKEDLDRDDCKQEAEVVIYETNCHWADCTKEYDTQEQLVHHINNEHIHGEKKEFVCRWQACTREQKPFKAQYMLVVHMRRHTGEKPHKCTFEGCSKAYSRLENLKTHLRSHTGEKPYVCEHEGCNKAFSNASDRAKHQNRTHSNEKPYICKIPGCTKRYTDPSSLRKHVKTVHGPDAHVTKKQRNDVHVRAPLLKENGDNEASAEPGGRGPEESVEASSTSHTVEDCLHIKAIKTESSGLCQSSPGAQSSCSSEPSPLGSAPNNDSGMEMPGTGPGSLGDLTALADTCPGADTSALAAPSTGGLQLRKHMSTVHRFEQLKREKLKSLKDSCSWAGPAPHTRNTKLPPLPVNGSVLENFNNTGGGGPAGLLPSQRLPELTEVTMLSQLQERRDSSTSTMSSAYTVSRRSSGISPYFSSRRSSEASPLGGLRPHNASSADSYDPISTDASRRSSEASQCSGGGPGLLNLTPAQQYNLRAKYAAATGGPPPTPLPGLDRVSLRTRLALLDAPERALPGACPHPLGPRRGSDGPTYSHGHGHGYAGAAPAFPHEGPNSSTRRASDPVRRPDPLILPRVQRFHSTHNMNPGSLPPCADRRGLHVQSHPSVDSNLTRNAYSPRPPSINENVVMEAVAAGVDGPGLECDLGLVEDELVLPDDVVQYIKAHTGGTLDDGIRQGYPTEGTGFPENSKLPSPGLQGHRRLAAADSNMGPSAPGLGGCQLSYSPSSNLNKSNMPVQWNEVSSGTVDALPTQVKPPPFPHSNLAVVQQKPAFGQYPGYNPQSVQSSSGGLDSTQPHLQLRGAPSASRGSYTQQPRQPAAGSQCLGMSAAMSPQASYSQAHPQLSPNIVSGSLNQFSPSCSNMAAKPSHLGLPQQMEVVPNATIMNGHQREHGVPNSSLAAVSQPHPVLSYPQQDSYQQGSNLLSSHQPGFMESQQNAGFGLMQPRPPLEPNTASRHRGVRSGQQQLYARTTGQAMVTSANQETAEAMPKGPAGTMVSLAPQPSQDTGRAQDQNTLYYYGQIHMYEQNGGCPAVQPQPPQPQACSDSIQPEPLPSPGVNQVSSTVDSQLLEPPQIDFDAIMDDGDHSSLFSGALSPTLLHNLSQNSSRLTTPRNSLTLPSIPAGISNMAVGDMSSMLTSLAEESKFLNMMT
partner: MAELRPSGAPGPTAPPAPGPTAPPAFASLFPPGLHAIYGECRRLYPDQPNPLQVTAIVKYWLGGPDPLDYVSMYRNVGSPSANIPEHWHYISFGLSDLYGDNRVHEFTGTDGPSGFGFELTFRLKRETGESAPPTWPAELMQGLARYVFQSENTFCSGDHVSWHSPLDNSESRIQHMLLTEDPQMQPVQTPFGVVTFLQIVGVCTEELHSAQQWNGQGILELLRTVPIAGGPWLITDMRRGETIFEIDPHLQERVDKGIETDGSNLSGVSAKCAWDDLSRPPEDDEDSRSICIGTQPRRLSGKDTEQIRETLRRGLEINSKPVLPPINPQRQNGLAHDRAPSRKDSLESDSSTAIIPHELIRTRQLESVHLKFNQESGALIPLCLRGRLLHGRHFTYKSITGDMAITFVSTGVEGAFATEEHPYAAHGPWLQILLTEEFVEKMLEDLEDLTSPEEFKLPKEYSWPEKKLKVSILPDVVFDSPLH
B2: Zinc finger protein GLI1 (Homo sapiens), P08151 (parent)
chain: MFNSMTPPPISSYGEPCCLRPLPSQGAPSVGTEGLSGPPFCHQANLMSGPHSYGPARETNSCTEGPLFSSPRSAVKLTKKRALSISPLSDASLDLQTVIRTSPSSLVAFINSRCTSPGGSYGHLSIGTMSPSLGFPAQMNHQKGPSPSFGVQPCGPHDSARGGMIPHPQSRGPFPTCQLKSELDMLVGKCREEPLEGDMSSPNSTGIQDPLLGMLDGREDLEREEKREPESVYETDCRWDGCSQEFDSQEQLVHHINSEHIHGERKEFVCHWGGCSRELRPFKAQYMLVVHMRRHTGEKPHKCTFEGCRKSYSRLENLKTHLRSHTGEKPYMCEHEGCSKAFSNASDRAKHQNRTHSNEKPYVCKLPGCTKRYTDPSSLRKHVKTVHGPDAHVTKRHRGDGPLPRAPSISTVEPKREREGGPIREESRLTVPEGAMKPQPSPGAQSSCSSDHSPAGSAANTDSGVEMTGNAGGSTEDLSSLDEGPCIAGTGLSTLRRLENLRLDQLHQLRPIGTRGLKLPSLSHTGTTVSRRVGPPVSLERRSSSSSSISSAYTVSRRSSLASPFPPGSPPENGASSLPGLMPAQHYLLRARYASARGGGTSPTAASSLDRIGGLPMPPWRSRAEYPGYNPNAGVTRRASDPAQAADRPAPARVQRFKSLGCVHTPPTVAGGGQNFDPYLPTSVYSPQPPSITENAAMDARGLQEEPEVGTSMVGSGLNPYMDFPPTDTLGYGGPEGAAAEPYGARGPGSLPLGPGPPTNYGPNPCPQQASYPDPTQETWGEFPSHSGLYPGPKALGGTYSQCPRLEHYGQVQVKPEQGCPVGSDSTGLAPCLNAHPSEGPPHPQPLFSHYPQPSPPQYLQSGPYTQPPPDYLPSEPRPCLDFDSPTHSTGQLKAQLVCNYVQSQQELLWEGGGREDAPAQEPSYQSPKFLGGSQVSPSRAKAPVNTYGPGFGPNLPNHKSGSYPTPSPCHENFVVGANRASHRAAAPPRLLPPLPTCYGPLKVGGTNPSCGHPEVGRLGGGPALYPPPEGQVCNPLDSLDLDNTQLDFVAILDEPQGLSPPPSHDQRGSSGHTPPPSGPPNMAVGNMSVLLRSLPGETEFLNSSA
partner: B1 partner
B3: Suppressor of fused homolog (Homo sapiens), Q9UMX1 (parent)
chain: B1 partner

Variants of: B1
Conditions: with sufu_human SUFU, Q9UMX1

| effect of a mutation on the interaction | Variant |
| --- | --- |
| disrupting interaction | G270A;H271A;L272D |
| disrupting interaction | G270V;H271E;L272D |

Variants of: B2
Conditions: with sufu_human SUFU, Q9UMX1

| effect of a mutation on the interaction | Variant |
| --- | --- |
| decreasing interaction | G122A;H123A;L124D |

Variants of: B3
Conditions: with gli1_human GLI1, P08151

| effect of a mutation on the interaction | Variant |
| --- | --- |
| disrupting interaction | Y147R;F155A;D159A;L380R |
| disrupting interaction | Y147R;F155A;D159R;L380R |
| decreasing interaction | Y147R;F155A |
| disrupting interaction | Y147R;D159R |
| disrupting interaction | Y147R;D159R;L380R |

Variants of: B3
Conditions: with gli1_human GLI1, P08151
Remark: another data set of the same source

| effect of a mutation on the interaction | Variant |
| --- | --- |
| disrupting interaction | D159R |
| disrupting interaction | D159A |

More lines, now with the values behind:

| Variant | effect of a mutation on the interaction |
| --- | --- |
| Y147R;F155A;D159R | disrupting interaction |
| Y147R;F155A | disrupting interaction |

Variants of: B3
Conditions: with gli2_mouse Gli2, Q0VGT2

| effect of a mutation on the interaction | Variant |
| --- | --- |
| decreasing interaction | D159R |
| decreasing interaction | L380R |
| disrupting interaction | Y147R;D159R;L380R |

Variants of: B3
Conditions: with gli2_mouse Gli2, Q0VGT2
Remark: another data set of the same source

| effect of a mutation on the interaction | Variant |
| --- | --- |
| disrupting interaction | D159R |
| disrupting interaction | L380R |
